Results from article PMC12122975, “Structures of the Escherichia coli type 1 pilus during pilus rod assembly and after assembly termination” (Nature Communications, 2025).

T1: FimD, type 1 pilus assembly platform (usher) (E. coli, UniProt P30130 46-878)
T1 sequence: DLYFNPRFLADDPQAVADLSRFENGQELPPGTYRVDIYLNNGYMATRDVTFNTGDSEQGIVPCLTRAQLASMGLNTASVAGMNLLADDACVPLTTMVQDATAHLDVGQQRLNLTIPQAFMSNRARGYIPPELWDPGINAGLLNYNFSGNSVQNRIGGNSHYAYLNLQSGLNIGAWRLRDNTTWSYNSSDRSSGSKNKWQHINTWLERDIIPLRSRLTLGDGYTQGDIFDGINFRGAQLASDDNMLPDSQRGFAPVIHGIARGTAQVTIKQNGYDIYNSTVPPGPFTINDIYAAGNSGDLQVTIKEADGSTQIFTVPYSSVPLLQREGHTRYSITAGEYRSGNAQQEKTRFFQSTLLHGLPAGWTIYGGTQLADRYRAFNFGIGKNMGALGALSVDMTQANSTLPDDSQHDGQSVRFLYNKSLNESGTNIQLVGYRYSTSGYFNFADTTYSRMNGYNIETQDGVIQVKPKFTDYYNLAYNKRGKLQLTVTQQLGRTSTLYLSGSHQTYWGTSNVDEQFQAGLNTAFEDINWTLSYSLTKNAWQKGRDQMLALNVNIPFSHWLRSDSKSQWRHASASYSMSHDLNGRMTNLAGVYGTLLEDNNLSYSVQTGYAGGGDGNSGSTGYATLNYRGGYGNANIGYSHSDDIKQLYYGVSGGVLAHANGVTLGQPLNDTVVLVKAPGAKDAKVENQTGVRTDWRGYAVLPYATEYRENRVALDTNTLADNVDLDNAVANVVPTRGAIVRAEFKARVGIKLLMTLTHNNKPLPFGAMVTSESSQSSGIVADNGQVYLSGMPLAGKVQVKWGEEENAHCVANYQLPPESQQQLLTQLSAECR

B1: FimI, assembly terminator subunit of the type 1 pilus (natural protein)
chain: GNKWNTTLPGGNMQFQGVIIAETCRIEAGDKQMTVNMGQISSNRFHAVGEDSAPVPFVIHLRECSTVVSERVGVAFHGVADGKNPDVLSVGEGPGIATNIGVALFDDEGNLVPINRPPANWKRLYSGSTSLHFIAKYRATGRRVTGGIANAQAWFSLTYQ
B2: FimCHis, His-tagged type 1 pilus assembly chaperone FimC (natural protein)
chain: GVALGATRVIYPAGQKQEQLAVTNNDENSTYLIQSWVENADGVKDGRFIVTPPLFAMKGKKENTLRILDATNNQLPQDRESLFWMNVKAIPSMDKSKLTENTLQLAIISRIKLYYRPAKLALPPDQAAEKLRFRRSANSLTLINPTPYYLTVTELNAGTRVLENALVPPMGESTVKLPSDAGSNITYRTINDYGALTPKMTGVME
notes: source: E. coli BL21(DE3) (pFimCHis-cyt), purified (HisTrap, Source 30S); also co-expressed with FimD and FimH in E. coli Tuner (pETS1001) and purified as FimDCH
B3: FimC, type 1 pilus assembly chaperone (untagged) (natural protein)
chain: GVALGATRVIYPAGQKQEQLAVTNNDENSTYLIQSWVENADGVKDGRFIVTPPLFAMKGKKENTLRILDATNNQLPQDRESLFWMNVKAIPSMDKSKLTENTLQLAIISRIKLYYRPAKLALPPDQAAEKLRFRRSANSLTLINPTPYYLTVTELNAGTRVLENALVPPMGESTVKLPSDAGSNITYRTINDYGALTPKMTGVME
notes: source: E. coli BL21(DE3) (pFimC-cyt), purified (Q Sepharose, Source 30S, Phenyl Sepharose); also co-expressed with FimF or FimG in E. coli HM125 and purified from periplasmic extract as FimFC or FimGC

Key:
Test in all cases: cryo-EM structure
[1] = molecular target: T1, FimD, type 1 pilus assembly platform …; conditions: both partners purified
[2] = molecular target: B2; conditions: both partners purified
cryo-EM structure = molecular target: the molecule itself
[3] = molecular target: B1; conditions: both partners purified
[4] = molecular target: B3; conditions: both partners purified

Row | Binder | binding result [1] | binding result [2] | binding result (cryo-EM structure) | binding result [3] | binding result [4]
1 | B1 | binds | binds | binds |  | 
2 | B2 | binds |  |  |  | 
3 | B3 | binds |  |  |  | 
4 | FimA, main subunit of the type 1 pilus rod (natural protein, also called FimAn; FimAn-1) AATTVNGGTVHFKGEVVNAACAVDAGSVDQTVQLGQVRTASLAQEGATSSAVGFNIQLNDCDTNVASKAAVAFLGTAIDAGHTNVLALQSSAAGSATNVGVQILDRTGAALTLDGATFSSETTLNNGTNTIPFQARYFATGAATPGAANADATFKVQYQ | binds | binds | binds | binds | binds
